Holding throughout (experiment): flow cytometry, protein L-biotin then streptavidin-PE on LV-transduced human primary T cells
Experiment [1] deals with CAR19 construct 1713 (LTG1713): SP-CD19binder-Truncated TNFRSF19link-TNFRSF19tm-signaling.
Target sequence (chain, as listed by the source): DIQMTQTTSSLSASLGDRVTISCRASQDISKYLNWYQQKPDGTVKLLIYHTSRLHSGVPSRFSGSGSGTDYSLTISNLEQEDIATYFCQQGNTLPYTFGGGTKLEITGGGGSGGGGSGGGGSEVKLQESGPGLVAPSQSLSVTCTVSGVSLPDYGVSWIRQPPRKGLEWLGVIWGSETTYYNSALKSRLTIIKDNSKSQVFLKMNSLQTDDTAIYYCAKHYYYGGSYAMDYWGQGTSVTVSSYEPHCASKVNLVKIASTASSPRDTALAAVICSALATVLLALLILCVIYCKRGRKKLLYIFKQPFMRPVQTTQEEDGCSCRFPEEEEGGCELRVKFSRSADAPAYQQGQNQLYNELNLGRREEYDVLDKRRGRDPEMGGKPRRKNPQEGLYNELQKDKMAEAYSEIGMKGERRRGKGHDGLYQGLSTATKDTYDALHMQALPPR
Experiment [2] deals with CAR19 construct 1494 (LTG1494): SP-CD19binder-CD8link-CD8tm-signaling.
Target sequence (chain, as listed by the source): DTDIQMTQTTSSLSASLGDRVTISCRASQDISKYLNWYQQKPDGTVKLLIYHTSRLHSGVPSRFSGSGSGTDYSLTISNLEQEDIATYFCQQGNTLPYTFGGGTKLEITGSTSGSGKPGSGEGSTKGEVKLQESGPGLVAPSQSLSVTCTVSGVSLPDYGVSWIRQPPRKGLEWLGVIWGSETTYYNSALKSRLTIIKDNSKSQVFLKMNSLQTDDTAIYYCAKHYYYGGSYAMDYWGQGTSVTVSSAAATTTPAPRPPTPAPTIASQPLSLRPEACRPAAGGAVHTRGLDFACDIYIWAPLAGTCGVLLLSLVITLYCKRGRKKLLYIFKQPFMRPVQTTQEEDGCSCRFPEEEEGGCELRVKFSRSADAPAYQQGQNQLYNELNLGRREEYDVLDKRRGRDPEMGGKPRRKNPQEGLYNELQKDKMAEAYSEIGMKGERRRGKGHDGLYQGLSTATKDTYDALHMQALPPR
Experiment [3] has as its target CAR19 construct 1712 (LTG1712): SP-CD19binder-TNFRSF16link-TNFRSF16tm-signaling.

Turning to protein L-biotin conjugate, the percentage CAR on T cell surface (cells stained) came to 0.3% in experiment [1], 90.4% in experiment [2] and 86.4% in experiment [3].
